Test results published in patent US20180369326A1 (LA JOLLA INSTITUTE FOR ALLERGY AND IMMUNOLOGY, published 2018).

How the values were obtained:
[1] = molecular target: T1, TANK-binding kinase 1 (TBK1), endogenous, mouse primary CD4+ T cells (mouse, UniProt Q9WUN2 1-729); experiment: co-IP (anti-ICOS IP, immunoblot), mouse primary CD4+ T cells (FIG. 2a)
T1 construct: also called endogenous TBK1
T1 sequence (looked up): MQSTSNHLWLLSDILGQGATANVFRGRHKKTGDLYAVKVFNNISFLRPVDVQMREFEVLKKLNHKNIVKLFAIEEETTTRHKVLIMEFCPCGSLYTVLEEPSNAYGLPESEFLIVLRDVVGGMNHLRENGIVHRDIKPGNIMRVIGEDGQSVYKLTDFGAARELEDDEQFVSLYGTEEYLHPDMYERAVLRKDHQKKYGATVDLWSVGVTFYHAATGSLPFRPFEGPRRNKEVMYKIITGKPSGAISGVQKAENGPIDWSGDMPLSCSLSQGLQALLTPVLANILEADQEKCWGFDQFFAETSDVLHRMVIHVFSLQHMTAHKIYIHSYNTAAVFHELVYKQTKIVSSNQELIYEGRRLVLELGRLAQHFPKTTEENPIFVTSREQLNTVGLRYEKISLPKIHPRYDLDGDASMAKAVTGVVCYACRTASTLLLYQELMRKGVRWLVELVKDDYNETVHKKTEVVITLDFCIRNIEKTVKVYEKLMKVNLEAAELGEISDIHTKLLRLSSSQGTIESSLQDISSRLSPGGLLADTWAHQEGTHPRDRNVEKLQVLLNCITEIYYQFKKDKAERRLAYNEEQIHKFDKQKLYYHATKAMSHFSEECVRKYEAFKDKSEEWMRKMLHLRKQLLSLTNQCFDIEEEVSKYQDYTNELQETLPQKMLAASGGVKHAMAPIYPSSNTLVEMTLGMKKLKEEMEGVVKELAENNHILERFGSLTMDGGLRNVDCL
From the text: IPs or whole cell lysates (WCL) were immunoblotted with the indicated Abs. 5% WCL was used as input to control for IP Western. […] Jurkat T cells transfected with WT ICOS, mIProx, YF or tailless (TL) ICOS plasmids were stimulated with anti-CD3 plus −ICOS mAbs prior to IP and immunoblotting. […] In vitro activated primary mouse CD4⁺ T cells were stimulated with anti-CD3 plus the indicated costimulatory mAbs, and IP or WCL were subjected to immunoblotting with the indicated Abs. Shown are representative of three experiments.
The human leukemic Jurkat T cell line, JTAg, was previously described (Li, J et al. J Immunol 2013, 191(1): 200-207; Rolf J et al., J Immunol 2010, 185(7): 4042-4052) and the HEK 293T cell line was obtained from ATCC. These cell lines have not been recently STR profiled but tested negative for mycoplasma contamination. JTAg cells in logarithmic growth phase were transfected with plasmid DNAs by electroporation and incubated for 24 hours.

[2] = molecular target: T2, TRAF2, endogenous, mouse primary CD4+ T cells (mouse, UniProt P39429 2-501); experiment: anti-ICOS IP and immunoblot, mouse primary CD4+ T cells restimulated with anti-CD3 plus anti-ICOS (FIG. 14)
T2 sequence (looked up): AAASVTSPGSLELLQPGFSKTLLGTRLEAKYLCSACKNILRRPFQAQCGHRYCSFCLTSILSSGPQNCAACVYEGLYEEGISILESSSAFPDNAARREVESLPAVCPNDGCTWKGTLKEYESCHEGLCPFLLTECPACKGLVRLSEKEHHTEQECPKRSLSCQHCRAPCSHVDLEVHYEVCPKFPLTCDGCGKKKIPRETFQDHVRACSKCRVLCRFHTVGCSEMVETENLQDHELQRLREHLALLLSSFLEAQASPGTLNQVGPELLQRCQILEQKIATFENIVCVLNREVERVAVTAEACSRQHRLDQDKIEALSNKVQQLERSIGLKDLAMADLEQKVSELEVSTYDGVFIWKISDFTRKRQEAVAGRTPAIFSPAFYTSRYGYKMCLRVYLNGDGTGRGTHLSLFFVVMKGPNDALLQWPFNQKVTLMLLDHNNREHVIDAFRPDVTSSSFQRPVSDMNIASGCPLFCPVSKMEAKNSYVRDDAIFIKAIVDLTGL

[3] = molecular target: T3, TRAF3, endogenous, mouse primary CD4+ T cells (mouse, UniProt Q60803 1-567); experiment: as above
T3 sequence (looked up): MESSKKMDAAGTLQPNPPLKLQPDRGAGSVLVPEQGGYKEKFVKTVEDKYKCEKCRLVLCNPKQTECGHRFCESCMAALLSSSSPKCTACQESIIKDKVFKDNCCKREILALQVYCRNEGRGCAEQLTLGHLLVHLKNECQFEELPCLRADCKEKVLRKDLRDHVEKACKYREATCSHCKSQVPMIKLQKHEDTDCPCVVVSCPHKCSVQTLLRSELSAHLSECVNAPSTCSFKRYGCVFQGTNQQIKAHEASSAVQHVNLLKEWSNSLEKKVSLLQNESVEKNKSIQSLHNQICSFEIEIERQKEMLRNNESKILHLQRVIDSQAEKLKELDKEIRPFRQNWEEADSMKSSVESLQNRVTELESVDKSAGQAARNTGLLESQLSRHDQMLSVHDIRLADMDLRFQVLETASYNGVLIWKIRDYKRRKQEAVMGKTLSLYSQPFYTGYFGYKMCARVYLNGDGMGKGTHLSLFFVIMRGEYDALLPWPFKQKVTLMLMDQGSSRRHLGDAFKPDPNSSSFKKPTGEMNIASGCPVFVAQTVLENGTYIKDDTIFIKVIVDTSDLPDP

[4] = molecular target: TRAF5, endogenous, mouse primary CD4+ T cells (mouse, UniProt P70191 1-558); experiment: as above
Chain of TRAF5, endogenous, mouse primary CD4+ T cells (P70191 whole entry): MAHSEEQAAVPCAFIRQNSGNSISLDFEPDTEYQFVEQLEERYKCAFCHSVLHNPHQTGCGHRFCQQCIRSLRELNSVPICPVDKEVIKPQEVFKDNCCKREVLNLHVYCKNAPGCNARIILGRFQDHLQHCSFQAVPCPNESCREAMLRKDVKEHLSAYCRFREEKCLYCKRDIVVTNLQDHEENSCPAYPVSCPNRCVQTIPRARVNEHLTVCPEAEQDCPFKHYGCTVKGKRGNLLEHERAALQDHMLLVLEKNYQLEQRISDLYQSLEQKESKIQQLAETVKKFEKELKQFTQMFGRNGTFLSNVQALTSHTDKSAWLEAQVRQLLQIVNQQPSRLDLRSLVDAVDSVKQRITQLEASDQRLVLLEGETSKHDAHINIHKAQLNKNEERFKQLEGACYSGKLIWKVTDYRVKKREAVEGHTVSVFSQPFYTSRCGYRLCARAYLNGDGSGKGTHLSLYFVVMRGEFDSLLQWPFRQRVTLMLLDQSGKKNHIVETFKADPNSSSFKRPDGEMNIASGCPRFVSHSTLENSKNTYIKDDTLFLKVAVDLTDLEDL

[5] = molecular target: T4, IKKϵ, endogenous, mouse primary CD4+ T cells (mouse, UniProt Q9R0T8 1-717); experiment: as above
T4 construct: also called IKKi
T4 sequence (looked up): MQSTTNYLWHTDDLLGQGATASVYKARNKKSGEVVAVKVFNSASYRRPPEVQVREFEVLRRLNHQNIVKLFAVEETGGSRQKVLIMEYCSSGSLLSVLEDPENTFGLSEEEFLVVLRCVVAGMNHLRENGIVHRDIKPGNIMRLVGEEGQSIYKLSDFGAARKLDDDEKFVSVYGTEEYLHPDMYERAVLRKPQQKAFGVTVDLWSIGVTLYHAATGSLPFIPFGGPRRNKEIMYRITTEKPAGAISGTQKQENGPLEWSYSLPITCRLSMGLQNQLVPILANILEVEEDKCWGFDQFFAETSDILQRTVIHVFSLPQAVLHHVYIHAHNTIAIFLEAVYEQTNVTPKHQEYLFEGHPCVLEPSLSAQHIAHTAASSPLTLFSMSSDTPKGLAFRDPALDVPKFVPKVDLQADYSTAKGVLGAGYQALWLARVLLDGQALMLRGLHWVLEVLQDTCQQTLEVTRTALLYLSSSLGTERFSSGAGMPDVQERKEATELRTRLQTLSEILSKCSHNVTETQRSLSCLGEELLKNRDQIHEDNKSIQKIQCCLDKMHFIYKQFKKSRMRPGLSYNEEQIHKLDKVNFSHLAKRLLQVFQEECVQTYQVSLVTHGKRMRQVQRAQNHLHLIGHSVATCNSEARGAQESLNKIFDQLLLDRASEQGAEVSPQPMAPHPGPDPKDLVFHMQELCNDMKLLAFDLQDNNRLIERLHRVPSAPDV

[6] = molecular target: p85α, the regulatory subunit of PI3K, endogenous, mouse primary CD4+ T cells (mouse, UniProt P26450 2-724); experiment: co-IP (anti-ICOS IP, immunoblot), mouse CD4+ T cells unstimulated or stimulated with anti-CD3, anti-ICOS or both (FIG. 6a)
Chain of p85α, the regulatory subunit of PI3K, endogenous, mouse primary CD4+ T cells (P26450 2-724): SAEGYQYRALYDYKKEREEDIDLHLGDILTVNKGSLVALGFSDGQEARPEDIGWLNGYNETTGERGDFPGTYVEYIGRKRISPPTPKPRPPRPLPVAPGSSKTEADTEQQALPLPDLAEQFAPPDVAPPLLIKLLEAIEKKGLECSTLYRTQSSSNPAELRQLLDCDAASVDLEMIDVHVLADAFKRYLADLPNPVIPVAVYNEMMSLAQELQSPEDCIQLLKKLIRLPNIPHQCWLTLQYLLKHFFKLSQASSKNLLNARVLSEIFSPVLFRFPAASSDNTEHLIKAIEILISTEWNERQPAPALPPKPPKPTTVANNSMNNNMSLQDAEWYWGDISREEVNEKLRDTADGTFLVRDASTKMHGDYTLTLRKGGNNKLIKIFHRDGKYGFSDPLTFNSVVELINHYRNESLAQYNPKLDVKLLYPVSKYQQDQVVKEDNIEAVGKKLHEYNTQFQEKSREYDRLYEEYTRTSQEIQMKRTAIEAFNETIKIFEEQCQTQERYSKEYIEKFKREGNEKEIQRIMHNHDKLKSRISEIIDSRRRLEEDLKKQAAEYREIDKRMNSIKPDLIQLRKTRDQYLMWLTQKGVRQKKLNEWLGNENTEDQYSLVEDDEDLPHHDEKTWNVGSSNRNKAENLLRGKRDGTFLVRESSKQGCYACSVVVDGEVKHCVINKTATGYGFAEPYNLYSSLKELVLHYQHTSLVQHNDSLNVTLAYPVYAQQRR

B1: ICOS, endogenous, of mouse primary CD4+ T cells (receptor)
chain: EINGSADHRMFSFHNGGVQISCKYPETVQQLKMRLFREREVLCELTKTKGSGNAVSIKNPMLCLYHLSNNSVSFFLNNPDSSQGSYYFCSLSIFDPPPFQERNLSGGYLHIYESQLCCQLKLWLPVGCAAFVVVLLFGCILIIWFSKKKYGSSVHDPNSEYMFMAAVNTNKKSRLAGVTS
Q: What does the source list for B1?
A: binding result [1]: binds; binding result [2]: no binding; binding result [3]: no binding; binding result [4]: no binding; binding result [5]: no binding; binding result [6]: binds
